Assay results taken from patent JP2004000228A.

Target: anti-Fas monoclonal antibody HFE7A produced by mouse-mouse hybridoma HFE7A (FERM BP-5828)
Assay: peptide competition: 200 μg peptide preincubated with 0.25 μg HFE7A, then flow cytometry on WR19L12a cells

Binder | inhibition of the binding of HFE7A to WR19L12a cells
EINCTRTQNT [P100] | 50%
KCRCKPNFFC [P110] | 60%
